Assays:
naif1_human NAIF1 = naif1_human NAIF1 (UniProt Q69YI7)
grn_human GRN = grn_human GRN (UniProt P28799)
rgs20_human RGS20 = rgs20_human RGS20 (UniProt O76081)
trip6_human TRIP6 = trip6_human TRIP6 (UniProt Q15654)
k1h1_human KRT31 = k1h1_human KRT31 (UniProt Q15323)
gpix_human GP9 = gpix_human GP9 (UniProt P14770)
sdcb1_human SDCBP = sdcb1_human SDCBP (UniProt O00560)
prdc1_human PRTFDC1 = prdc1_human PRTFDC1 (UniProt Q9NRG1)
tri23_human TRIM23 = tri23_human TRIM23 (UniProt P36406)
ubql1_human UBQLN1 = ubql1_human UBQLN1 (UniProt Q9UMX0)
rpia_human RPIA = rpia_human RPIA (UniProt P49247)
rpia_human RPIA, sequence (P49247 whole entry): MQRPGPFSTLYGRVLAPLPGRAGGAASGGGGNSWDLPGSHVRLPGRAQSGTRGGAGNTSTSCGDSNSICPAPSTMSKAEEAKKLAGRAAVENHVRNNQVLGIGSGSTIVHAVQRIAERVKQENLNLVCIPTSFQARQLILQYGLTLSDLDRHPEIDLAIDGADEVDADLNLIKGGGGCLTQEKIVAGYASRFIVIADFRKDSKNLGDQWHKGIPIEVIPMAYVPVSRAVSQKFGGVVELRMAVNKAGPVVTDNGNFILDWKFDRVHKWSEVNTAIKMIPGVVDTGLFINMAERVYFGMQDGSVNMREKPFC

lonf1_human LONRF1 = lonf1_human LONRF1 (UniProt Q17RB8)
frih_human FTH1 = frih_human FTH1 (UniProt P02794)
ncoa5_human NCOA5 = ncoa5_human NCOA5 (UniProt Q9HCD5)
cryaa_human CRYAA = cryaa_human CRYAA (UniProt P02489)
cryaa_human CRYAA, sequence (P02489 whole entry): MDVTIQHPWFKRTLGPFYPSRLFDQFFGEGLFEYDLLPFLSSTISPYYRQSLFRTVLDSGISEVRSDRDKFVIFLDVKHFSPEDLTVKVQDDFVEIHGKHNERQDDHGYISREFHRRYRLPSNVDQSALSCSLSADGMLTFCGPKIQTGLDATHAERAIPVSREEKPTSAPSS

CCDC102B = CCDC102B (UniProt Q68D86)
lztl1_human LZTFL1 = lztl1_human LZTFL1 (UniProt Q9NQ48)
nud14_human NUDT14 = nud14_human NUDT14 (UniProt O95848)
pygm_human PYGM = pygm_human PYGM (UniProt P11217)
vac14_human VAC14 = vac14_human VAC14 (UniProt Q08AM6)
pnma1_human PNMA1 = pnma1_human PNMA1 (UniProt Q8ND90)
gas7_human GAS7 = gas7_human GAS7 (UniProt O60861)
pnma5_human PNMA5 = pnma5_human PNMA5 (UniProt Q96PV4)
pnma5_human PNMA5, sequence (Q96PV4 whole entry): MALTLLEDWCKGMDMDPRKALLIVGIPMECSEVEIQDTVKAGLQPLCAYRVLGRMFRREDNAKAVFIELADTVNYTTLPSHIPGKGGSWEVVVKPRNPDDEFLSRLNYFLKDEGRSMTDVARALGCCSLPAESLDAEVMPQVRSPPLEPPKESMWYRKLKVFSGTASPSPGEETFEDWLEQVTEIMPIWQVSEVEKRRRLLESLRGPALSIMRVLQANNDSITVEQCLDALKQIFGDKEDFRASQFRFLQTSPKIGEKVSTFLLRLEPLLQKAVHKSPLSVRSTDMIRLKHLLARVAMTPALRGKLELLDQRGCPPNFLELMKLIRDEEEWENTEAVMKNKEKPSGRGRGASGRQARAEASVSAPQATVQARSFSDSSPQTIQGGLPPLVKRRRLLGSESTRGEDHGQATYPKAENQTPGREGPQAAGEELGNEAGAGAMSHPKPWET

actb_human ACTB = actb_human ACTB (UniProt P60709)
kctd1_human KCTD1 = kctd1_human KCTD1 (UniProt Q719H9)
ca050_human C1orf50 = ca050_human C1orf50 (UniProt Q9BV19)
birc2_human BIRC2 = birc2_human BIRC2 (UniProt Q13490)
actg_human ACTG1 = actg_human ACTG1 (UniProt P63261)
gnmt_human GNMT = gnmt_human GNMT (UniProt Q14749)
ei2ba_human EIF2B1 = ei2ba_human EIF2B1 (UniProt Q14232)
cdd_human CDA = cdd_human CDA (UniProt P32320)
cdr2_human CDR2 = cdr2_human CDR2 (UniProt Q01850)
mbip1_human MBIP = mbip1_human MBIP (UniProt Q9NS73)
mbip1_human MBIP, sequence (Q9NS73 whole entry): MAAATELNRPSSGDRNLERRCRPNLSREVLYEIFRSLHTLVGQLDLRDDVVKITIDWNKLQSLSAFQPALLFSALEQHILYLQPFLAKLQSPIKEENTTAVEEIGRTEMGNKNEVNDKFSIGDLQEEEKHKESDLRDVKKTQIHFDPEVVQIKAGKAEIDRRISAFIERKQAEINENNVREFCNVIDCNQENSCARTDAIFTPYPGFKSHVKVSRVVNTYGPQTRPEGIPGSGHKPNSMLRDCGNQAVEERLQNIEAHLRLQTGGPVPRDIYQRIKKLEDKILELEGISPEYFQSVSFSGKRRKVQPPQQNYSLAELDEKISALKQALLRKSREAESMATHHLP

TSC22D1 = TSC22D1 (UniProt Q15714)
TSC22D1, sequence (Q15714 whole entry): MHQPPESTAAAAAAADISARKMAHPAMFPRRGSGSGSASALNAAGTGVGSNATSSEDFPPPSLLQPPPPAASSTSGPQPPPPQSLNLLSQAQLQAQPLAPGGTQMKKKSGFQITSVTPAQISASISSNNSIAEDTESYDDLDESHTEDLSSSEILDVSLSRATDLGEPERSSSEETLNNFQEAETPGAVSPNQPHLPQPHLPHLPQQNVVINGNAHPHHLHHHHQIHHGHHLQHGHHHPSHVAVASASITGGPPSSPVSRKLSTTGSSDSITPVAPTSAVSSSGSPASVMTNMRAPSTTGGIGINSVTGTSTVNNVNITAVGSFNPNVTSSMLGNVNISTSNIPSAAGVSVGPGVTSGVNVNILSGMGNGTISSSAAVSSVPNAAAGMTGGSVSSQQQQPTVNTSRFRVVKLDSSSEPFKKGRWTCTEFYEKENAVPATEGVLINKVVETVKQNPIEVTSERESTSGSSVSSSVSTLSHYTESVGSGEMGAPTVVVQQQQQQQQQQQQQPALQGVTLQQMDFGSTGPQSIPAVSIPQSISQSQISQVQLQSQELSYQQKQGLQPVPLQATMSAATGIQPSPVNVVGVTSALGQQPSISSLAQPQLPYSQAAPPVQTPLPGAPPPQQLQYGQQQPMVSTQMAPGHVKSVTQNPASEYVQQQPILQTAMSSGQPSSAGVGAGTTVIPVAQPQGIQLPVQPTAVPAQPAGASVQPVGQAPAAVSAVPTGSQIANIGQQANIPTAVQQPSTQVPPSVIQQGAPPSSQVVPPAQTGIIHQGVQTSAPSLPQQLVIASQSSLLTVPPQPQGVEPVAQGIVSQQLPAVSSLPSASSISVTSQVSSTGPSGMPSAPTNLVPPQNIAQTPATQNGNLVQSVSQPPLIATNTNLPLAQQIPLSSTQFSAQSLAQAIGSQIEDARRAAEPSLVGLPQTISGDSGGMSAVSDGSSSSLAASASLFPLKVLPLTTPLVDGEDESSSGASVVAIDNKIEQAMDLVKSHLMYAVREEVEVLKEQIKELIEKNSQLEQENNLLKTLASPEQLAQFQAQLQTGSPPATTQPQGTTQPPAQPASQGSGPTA

ndka_human NME1 = ndka_human NME1 (UniProt P15531)
prps2_human PRPS2 = prps2_human PRPS2 (UniProt P11908)
thap1_human THAP1 = thap1_human THAP1 (UniProt Q9NVV9)
mtnb_human APIP = mtnb_human APIP (UniProt Q96GX9)
dnja3_human DNAJA3 = dnja3_human DNAJA3 (UniProt Q96EY1)
dnja3_human DNAJA3, sequence (Q96EY1 whole entry): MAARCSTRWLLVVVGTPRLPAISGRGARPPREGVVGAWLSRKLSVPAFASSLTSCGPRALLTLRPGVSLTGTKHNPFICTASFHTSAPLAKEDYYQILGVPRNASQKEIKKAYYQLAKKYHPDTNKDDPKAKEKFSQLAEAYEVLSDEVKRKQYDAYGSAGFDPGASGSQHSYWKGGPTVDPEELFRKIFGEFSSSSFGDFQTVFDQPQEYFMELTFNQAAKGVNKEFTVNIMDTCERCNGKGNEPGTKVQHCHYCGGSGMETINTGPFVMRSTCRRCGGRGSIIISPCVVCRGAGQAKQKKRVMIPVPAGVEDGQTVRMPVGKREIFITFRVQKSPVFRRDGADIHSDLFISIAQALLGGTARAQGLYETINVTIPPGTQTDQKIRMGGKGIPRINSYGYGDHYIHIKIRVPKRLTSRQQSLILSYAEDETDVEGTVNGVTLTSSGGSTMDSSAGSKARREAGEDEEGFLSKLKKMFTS

dhb14_human HSD17B14 = dhb14_human HSD17B14 (UniProt Q9BPX1)
dctp1_human DCTPP1 = dctp1_human DCTPP1 (UniProt Q9H773)
dctp1_human DCTPP1, sequence (Q9H773 whole entry): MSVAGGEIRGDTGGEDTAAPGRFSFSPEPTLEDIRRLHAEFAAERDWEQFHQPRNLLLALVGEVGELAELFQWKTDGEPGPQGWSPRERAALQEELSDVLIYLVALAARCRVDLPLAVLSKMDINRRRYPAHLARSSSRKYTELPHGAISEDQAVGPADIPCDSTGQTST

tolip_human TOLLIP = tolip_human TOLLIP (UniProt Q9H0E2)
mif_human MIF = mif_human MIF (UniProt P14174)
edad_human EDARADD = edad_human EDARADD (UniProt Q8WWZ3)
rnf14_human RNF14 = rnf14_human RNF14 (UniProt Q9UBS8)
otub1_human OTUB1 = otub1_human OTUB1 (UniProt Q96FW1)
trim1_human MID2 = trim1_human MID2 (UniProt Q9UJV3)
rn115_human RNF115 = rn115_human RNF115 (UniProt Q9Y4L5)
dtx2_human DTX2 = dtx2_human DTX2 (UniProt Q86UW9)
dtx2_human DTX2, sequence (Q86UW9 whole entry): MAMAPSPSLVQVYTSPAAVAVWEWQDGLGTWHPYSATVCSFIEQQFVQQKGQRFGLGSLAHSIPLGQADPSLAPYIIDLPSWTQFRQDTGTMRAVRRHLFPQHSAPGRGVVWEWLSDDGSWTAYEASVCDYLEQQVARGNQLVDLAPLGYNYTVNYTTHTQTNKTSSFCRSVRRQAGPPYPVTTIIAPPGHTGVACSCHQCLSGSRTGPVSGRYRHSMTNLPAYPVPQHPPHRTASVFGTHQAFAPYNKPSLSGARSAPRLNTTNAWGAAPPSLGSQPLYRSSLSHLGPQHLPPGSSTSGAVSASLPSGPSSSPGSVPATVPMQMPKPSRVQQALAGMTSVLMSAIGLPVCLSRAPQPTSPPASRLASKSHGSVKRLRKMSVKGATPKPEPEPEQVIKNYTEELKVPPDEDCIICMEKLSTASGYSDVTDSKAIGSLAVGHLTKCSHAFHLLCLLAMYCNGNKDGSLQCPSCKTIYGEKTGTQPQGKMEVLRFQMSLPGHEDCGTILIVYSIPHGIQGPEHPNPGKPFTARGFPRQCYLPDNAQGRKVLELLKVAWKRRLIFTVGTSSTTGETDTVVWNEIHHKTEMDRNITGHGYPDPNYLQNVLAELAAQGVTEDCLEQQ

Measured: effect of a mutation on the interaction

Ubiquitin-conjugating enzyme E2 D4 (Homo sapiens), Q9Y2X8 G27S, sequence (Q9Y2X8 whole entry G27S): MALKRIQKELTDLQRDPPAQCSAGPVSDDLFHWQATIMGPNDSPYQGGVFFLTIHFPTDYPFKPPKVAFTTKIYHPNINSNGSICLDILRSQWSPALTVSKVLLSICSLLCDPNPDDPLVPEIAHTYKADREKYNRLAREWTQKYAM
Homeobox protein Hox-A1 (Homo sapiens), P49639 S98R, sequence (P49639 whole entry S98R): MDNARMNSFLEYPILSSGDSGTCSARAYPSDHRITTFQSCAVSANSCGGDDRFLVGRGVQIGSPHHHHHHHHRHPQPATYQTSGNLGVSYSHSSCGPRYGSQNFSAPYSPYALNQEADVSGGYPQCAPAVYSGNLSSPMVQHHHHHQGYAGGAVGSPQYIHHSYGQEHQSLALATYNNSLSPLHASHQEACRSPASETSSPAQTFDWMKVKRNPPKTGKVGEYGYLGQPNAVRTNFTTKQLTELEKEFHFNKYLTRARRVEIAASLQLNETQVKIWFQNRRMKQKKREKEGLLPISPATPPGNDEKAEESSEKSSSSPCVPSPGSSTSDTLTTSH
FAD synthase (Homo sapiens), Q8NFF5 R228H, sequence (Q8NFF5 whole entry R228H): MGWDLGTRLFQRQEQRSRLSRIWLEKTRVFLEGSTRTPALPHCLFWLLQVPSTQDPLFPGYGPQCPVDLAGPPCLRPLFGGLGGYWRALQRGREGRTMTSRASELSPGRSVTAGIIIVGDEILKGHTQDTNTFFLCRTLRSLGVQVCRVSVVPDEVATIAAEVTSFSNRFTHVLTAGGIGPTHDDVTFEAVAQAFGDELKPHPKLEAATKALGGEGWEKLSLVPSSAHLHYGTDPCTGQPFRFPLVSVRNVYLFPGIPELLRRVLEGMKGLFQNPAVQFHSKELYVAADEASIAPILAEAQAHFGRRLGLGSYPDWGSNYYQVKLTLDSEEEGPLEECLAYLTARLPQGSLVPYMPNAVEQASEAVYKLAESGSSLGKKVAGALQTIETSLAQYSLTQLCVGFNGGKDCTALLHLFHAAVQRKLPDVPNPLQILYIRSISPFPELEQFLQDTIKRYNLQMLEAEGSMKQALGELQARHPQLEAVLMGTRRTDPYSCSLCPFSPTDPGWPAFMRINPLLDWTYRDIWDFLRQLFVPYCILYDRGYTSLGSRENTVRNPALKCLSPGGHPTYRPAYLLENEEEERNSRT
prdc1_human PRTFDC1, sequence (Q9NRG1 whole entry): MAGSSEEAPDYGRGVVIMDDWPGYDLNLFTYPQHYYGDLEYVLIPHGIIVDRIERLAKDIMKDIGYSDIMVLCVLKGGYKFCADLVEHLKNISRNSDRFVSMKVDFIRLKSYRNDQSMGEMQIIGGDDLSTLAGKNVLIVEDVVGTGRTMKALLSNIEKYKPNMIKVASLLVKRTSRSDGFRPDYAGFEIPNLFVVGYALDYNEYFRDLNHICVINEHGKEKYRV

Transcription factor SOX-14 (Homo sapiens), O95416 A107G
with no effect: naif1_human NAIF1

Homeobox protein Hox-A1 (Homo sapiens), P49639 S98R
with no effect: grn_human GRN | rgs20_human RGS20 | trip6_human TRIP6 | k1h1_human KRT31 | gpix_human GP9

FAD synthase (Homo sapiens), Q8NFF5 R228H
with no effect: sdcb1_human SDCBP | prdc1_human PRTFDC1 | tri23_human TRIM23

Thioredoxin domain-containing protein 12 (Homo sapiens), O95881 T80M
with no effect: ubql1_human UBQLN1

Protein N-terminal glutamine amidohydrolase (Homo sapiens), Q96HA8 A52G
not listed: naif1_human NAIF1 | grn_human GRN | rgs20_human RGS20 | trip6_human TRIP6 | k1h1_human KRT31 | gpix_human GP9 | sdcb1_human SDCBP | prdc1_human PRTFDC1 | tri23_human TRIM23 | ubql1_human UBQLN1 | rnf14_human RNF14 | otub1_human OTUB1 | trim1_human MID2 | rn115_human RNF115 | dtx2_human DTX2
with no effect: all other assays above

Ubiquitin-conjugating enzyme E2 D4 (Homo sapiens), Q9Y2X8 G27S
with no effect: rnf14_human RNF14 | otub1_human OTUB1 | trim1_human MID2 | rn115_human RNF115 | dtx2_human DTX2

Source: IntAct's records for PubMed 31515488
